B1: AP1-15B4 (antibody, V domains shown)
VH: EVHLVESGGDLVKPGGSLKLSCAASGFAFSDFAMSWVRQTPEKRLEWVAIIKSDDSYTYYPDSVRDRFTISRDNARNTLYLQMTSLRSEDTALYYCTKIYDAYFYAMDYWGQGTSVTVSS
VL: DIVRTQSPLSLSVSLGDQASISCRSSQSLLHSNGNTYLHWYLQKPGQSPKLLIYKVSNRFSGVPDRFSGSGSGTDFTLKISILEAEDLGIYFCSQSTHFPTFGGGTKLEIK
B2: AP4-24H11 (antibody, V domains shown)
VH: EVKPQESGPGLVKPSQSLSLTCTVTGYSITSNYAWNWIRQFPGNKLEWMGFISSYGTTTYNPSLKSRFSITRDTSKNQFFLQLHSVTIEDTGTYFCTREGDYWGQGTTLTVSS
VL: DIVMTQATLSLPVSLGDQASISCRSSQRLVPSNGNIYLHWFLQKPGQSPKLLIYKLSSRFSGVPDRFSGSGSGTDFTLKISRVESEDLGIYFCSQTTHVPYTFGGGTKLEIK
B3: AP4-29E10 (antibody, V domains shown)
VH: EVQLQQSGPELEKPGASVKISCKASGHSFTGYNMNWVKQSNDKSLEWIGNIAPYYGVTAYNQKFKGKATLTGDKSSSTAYMQLKSLASEDSAVYYCVLDTSGYASWGQGTLVTVSA
VL: DIVMTQATASLTVSLGQRATISCRASKSVSTSGYSYMHWYQQKPGQPPKLLIYLASNLESGVPARFSGSGSGTDFTLNIHPVEEEDAATYYCQHSREVPYTFGGGTKLELK

Legend:
[1] = biological target: T1, AIP-1 (S. aureus I native cyclic signaling peptide) (Staphylococcus aureus); assay: competition ELISA on AP1-BSA
[2] = biological target: T2, AIP-4 (S. aureus IV native cyclic signaling peptide) (Staphylococcus aureus); assay: competition ELISA on AP4-BSA
[3] = biological target: T2, AIP-4 (S. aureus IV native cyclic …); assay: competition ELISA on AP4-BSA; remark: listed apart in the source
[4] = biological target: T1, AIP-1 (S. aureus I native cyclic …); assay: competition ELISA on AP4-BSA
[5] = biological target: T2, AIP-4 (S. aureus IV native cyclic …); assay: cell-based or functional assay
[6] = biological target: T2, AIP-4 (S. aureus IV native cyclic …); assay: competition ELISA on AP4-BSA, tested 5 different times

Binder	Kd [1] [nM]	Kd [2] [nM]	Kd [3] [nM]	Kd [4] [nM]	Real-Time PCR fold-change of eta mRNA in RN4850 [5] [fold]	Real-Time PCR fold-change of hla mRNA in RN4850 [5] [fold]	Real-Time PCR fold-change of rnaIII mRNA in RN4850 [5] [fold]	Real-Time PCR fold-change of spa mRNA in RN4850 [5] [fold]	rnaIII transcriptional level in S. aureus RN4850 during stationary growth phase (RT-PCR) [5] [fold]	Kd [6] [nM]
B1	800									
B2		90	98	5000	-8.1	-5.2	-77	5.7	> 50	
B3		24		3000						2 to 110

Source: patent US9394371
